Reference: patent US20190153061A1

B1: BCMA-14 CAR (139113) (protein)
chain: EVQLVETGGGLVQPGGSLRLSCAVSGFALSNHGMSWVRRAPGKGLEWVSGIVYSGSTYYAASVKGRFTISRDNSRNTLYLQMNSLRPEDTAIYYCSAHGGESDVWGQGTTVTVSSASGGGGSGGRASGGGGSETTLTQSPATLSVSPGERATLSCRASQSVGSNLAWYQQKPGQGPRLLIYGASTRATGIPARFSGSGSGTEFTLTISSLQPEDFAVYYCQQYNDWLPVTFGQGTKVEIKTTTPAPRPPTPAPTIASQPLSLRPEACRPAAGGAVHTRGLDFACDIYIWAPLAGTCGVLLLSLVITLYCKRGRKKLLYIFKQPFMRPVQTTQEEDGCSCRFPEEEEGGCELRVKFSRSADAPAYKQGQNQLYNELNLGRREEYDVLDKRRGRDPEMGGKPRRKNPQEGLYNELQKDKMAEAYSEIGMKGERRRGKGHDGLYQGLSTATKDTYDALHMQALPPR
B2: BCMA-13 CAR (139112) (protein)
chain: QVQLVESGGGLVQPGGSLRLSCAVSGFALSNHGMSWVRRAPGKGLEWVSGIVYSGSTYYAASVKGRFTISRDNSRNTLYLQMNSLRPEDTAIYYCSAHGGESDVWGQGTTVTVSSASGGGGSGGRASGGGGSDIRLTQSPSPLSASVGDRVTITCQASEDINKFLNWYHQTPGKAPKLLIYDASTLQTGVPSRFSGSGSGTDFTLTINSLQPEDIGTYYCQQYESLPLTFGGGTKVEIKTTTPAPRPPTPAPTIASQPLSLRPEACRPAAGGAVHTRGLDFACDIYIWAPLAGTCGVLLLSLVITLYCKRGRKKLLYIFKQPFMRPVQTTQEEDGCSCRFPEEEEGGCELRVKFSRSADAPAYKQGQNQLYNELNLGRREEYDVLDKRRGRDPEMGGKPRRKNPQEGLYNELQKDKMAEAYSEIGMKGERRRGKGHDGLYQGLSTATKDTYDALHMQALPPR
B3: BCMA-12 CAR (139111) (protein)
chain: EVQLLESGGGLVQPGGSLRLSCAVSGFALSNHGMSWVRRAPGKGLEWVSGIVYSGSTYYAASVKGRFTISRDNSRNTLYLQMNSLRPEDTAIYYCSAHGGESDVWGQGTTVTVSSASGGGGSGGRASGGGGSDIVMTQTPLSLSVTPGQPASISCKSSQSLLRNDGKTPLYWYLQKAGQPPQLLIYEVSNRFSGVPDRFSGSGSGTDFTLKISRVEAEDVGAYYCMQNIQFPSFGGGTKLEIKTTTPAPRPPTPAPTIASQPLSLRPEACRPAAGGAVHTRGLDFACDIYIWAPLAGTCGVLLLSLVITLYCKRGRKKLLYIFKQPFMRPVQTTQEEDGCSCRFPEEEEGGCELRVKFSRSADAPAYKQGQNQLYNELNLGRREEYDVLDKRRGRDPEMGGKPRRKNPQEGLYNELQKDKMAEAYSEIGMKGERRRGKGHDGLYQGLSTATKDTYDALHMQALPPR
B4: BCMA-9 CAR (139108) (protein)
chain: QVQLVESGGGLVKPGGSLRLSCAASGFTFSDYYMSWIRQAPGKGLEWVSYISSSGSTIYYADSVKGRFTISRDNAKNSLYLQMNSLRAEDTAVYYCARESGDGMDVWGQGTTVTVSSASGGGGSGGRASGGGGSDIQMTQSPSSLSASVGDRVTITCRASQSISSYLNWYQQKPGKAPKLLIYAASSLQSGVPSRFSGSGSGTDFTLTISSLQPEDFATYYCQQSYTLAFGQGTKVDIKTTTPAPRPPTPAPTIASQPLSLRPEACRPAAGGAVHTRGLDFACDIYIWAPLAGTCGVLLLSLVITLYCKRGRKKLLYIFKQPFMRPVQTTQEEDGCSCRFPEEEEGGCELRVKFSRSADAPAYKQGQNQLYNELNLGRREEYDVLDKRRGRDPEMGGKPRRKNPQEGLYNELQKDKMAEAYSEIGMKGERRRGKGHDGLYQGLSTATKDTYDALHMQALPPR

target: B-cell maturation antigen (BCMA) expressed on cells (human), Q02223; assay: cell-based or functional assay
Sequence (Q02223 whole entry): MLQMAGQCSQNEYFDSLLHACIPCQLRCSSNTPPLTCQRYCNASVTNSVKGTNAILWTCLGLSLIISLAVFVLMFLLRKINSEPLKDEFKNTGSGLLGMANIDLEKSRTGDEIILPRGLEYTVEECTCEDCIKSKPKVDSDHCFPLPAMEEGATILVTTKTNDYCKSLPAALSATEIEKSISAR

Binder | Cell killing EC50; KMS11-luc | JNL binding assay, ratio to K562; K562-BCMA | JNL binding assay, ratio to K562; NCI-H929 | JNL binding assay, ratio to K562; RPMI 8226 | Proliferation, CD3 ratio to no target; K562-BCMA | Proliferation, CD3 ratio to no target; KMS11-luc | Proliferation, CD3 ratio to no target; NCI-H929 | Proliferation, CD3 ratio to no target; RPMI 8226 | Proliferation, CD4 ratio to no target; K562-BCMA | Proliferation, CD4 ratio to no target; KMS11-luc
B1 | 0.12 not printed | 2.81 | 2.65 | 3.31 | 4.12 | 3.42 | 3.86 | 3.93 | 5.73 | 3.97
B2 | 0.11 not printed | 3.74 | 2.68 | 3.66 | 3.47 | 3.2 | 3.46 | 3.48 | 5.4 | 3.84
B3 | 0.22 not printed | 3.17 | 2.78 | 3.36 | 2.9 | 2.76 | 2.98 | 3.27 | 3.42 | 2.94
B4 | 0.68 not printed | 1.59 | 1.99 | 1.54 | 1.51 | 1.66 | 4.63 | 2.5 | 1.59 | 1.49

same assay, conditions: not given

Binder | Proliferation, CD4 ratio to no target; NCI-H929 | Proliferation, CD4 ratio to no target; RPMI 8226 | Proliferation, CD8 ratio to no target; K562-BCMA | Proliferation, CD8 ratio to no target; KMS11-luc | Proliferation, CD8 ratio to no target; NCI-H929 | Proliferation, CD8 ratio to no target; RPMI 8226
B1 | 5.07 | 4.84 | 2.65 | 2.83 | 2.73 | 3.03
B2 | 5.05 | 4.44 | 2.34 | 2.79 | 2.53 | 2.86
B3 | 3.41 | 3.66 | 1.51 | 2.11 | 1.76 | 2.12
B4 | 4.45 | 2.24 | 1.43 | 1.83 | 4.79 | 2.76
